Reference: patent publication US8741844B2, “Use of mutated antithrombins for treating or preventing coagulation disorders” (Universite Paris-Sud XI, priority 2007, dated 2014)
Substitutions are numbered along the chain they refer to. Names may count otherwise.

B1: AT-N135Q-Pro394: human antithrombin with Proline inserted between 393 and 394 and substitution at 135 by Glutamine (protein, listed as Homo sapiens)
chain: HGSPVDICTAKPRDIPMNPMCIYRSPEKKATEDEGSEQKIPEATNRRVWELSKANSRFATTFYQHLADSKNDNDNIFLSPLSISTAFAMTKLGACNDTLQQLMEVFKFDTISEKTSDQIHFFFAKLNCRLYRKAQKSSKLVSANRLFGDKSLTFNETYQDISELVYGAKLQPLDFKENAEQSRAAINKWVSNKTEGRITDVIPSEAINELTVLVLVNTIYFKGLWKSKFSPENTRKELFYKADGESCSASMMYQEGKFRYRRVAEGTQVLELPFKGDDITMVLILPKPEKSLAKVEKELTPEVLQEWLDELEEMMLVVHMPRFRIEDGFSLKEQLQDMGLVDLFSPEKSKLPGIVAEGRDDLYVSDAFHKAFLEVNEEGSEAAASTAVVIAGRPSLNPNRVTFKANRPFLVFIREVPLNTIIFMGRVANPCVK
B2: AT-N135Q-ΔR393: human antithrombin with deletion of position 393 and substitution at 135 by Glutamine (protein, listed as Homo sapiens)
chain: HGSPVDICTAKPRDIPMNPMCIYRSPEKKATEDEGSEQKIPEATNRRVWELSKANSRFATTFYQHLADSKNDNDNIFLSPLSISTAFAMTKLGACNDTLQQLMEVFKFDTISEKTSDQIHFFFAKLNCRLYRKAQKSSKLVSANRLFGDKSLTFNETYQDISELVYGAKLQPLDFKENAEQSRAAINKWVSNKTEGRITDVIPSEAINELTVLVLVNTIYFKGLWKSKFSPENTRKELFYKADGESCSASMMYQEGKFRYRRVAEGTQVLELPFKGDDITMVLILPKPEKSLAKVEKELTPEVLQEWLDELEEMMLVVHMPRFRIEDGFSLKEQLQDMGLVDLFSPEKSKLPGIVAEGRDDLYVSDAFHKAFLEVNEEGSEAAASTAVVIAGSLNPNRVTFKANRPFLVFIREVPLNTIIFMGRVANPCVK
B3: AT-N135Q-ΔS394: human antithrombin with deletion of position 394 and substitution at 135 by Glutamine (protein, listed as Homo sapiens)
chain: B2 chain with S393R
B4: AT-N135Q-ΔR393-S394: human antithrombin with deletion of positions 393 and 394 and substitution at 135 by Glutamine (protein, listed as Homo sapiens)
chain: HGSPVDICTAKPRDIPMNPMCIYRSPEKKATEDEGSEQKIPEATNRRVWELSKANSRFATTFYQHLADSKNDNDNIFLSPLSISTAFAMTKLGACNDTLQQLMEVFKFDTISEKTSDQIHFFFAKLNCRLYRKAQKSSKLVSANRLFGDKSLTFNETYQDISELVYGAKLQPLDFKENAEQSRAAINKWVSNKTEGRITDVIPSEAINELTVLVLVNTIYFKGLWKSKFSPENTRKELFYKADGESCSASMMYQEGKFRYRRVAEGTQVLELPFKGDDITMVLILPKPEKSLAKVEKELTPEVLQEWLDELEEMMLVVHMPRFRIEDGFSLKEQLQDMGLVDLFSPEKSKLPGIVAEGRDDLYVSDAFHKAFLEVNEEGSEAAASTAVVIAGLNPNRVTFKANRPFLVFIREVPLNTIIFMGRVANPCVK
B5: AT-Pro394: human antithrombin with insertion of a Proline between positions 393 and 394 (protein, listed as Homo sapiens)
chain: B1 chain with Q135N

Columns and labels:
factor Xa = molecular target: T1, factor Xa (Homo sapiens, UniProt P00742); assay: Kinetic assay of factor Xa inhibition by antithrombins in a purified system (chromogenic substrate, continuous or discontinuous); assay type: biochemical; details: for factor Xa inhibition in continuous method: saturating pentasaccharide concentration; for anticoagulant / anti-factor Xa activity / inhibition rate constant (kon) for factor Xa: discontinuous method; for factor Xa inhibitory activity: with or without pentasaccharide, compared with plasma / wild type antithrombin
T1 construct: purchased Kordia
T1 sequence (P00742 235-488 limits assumed): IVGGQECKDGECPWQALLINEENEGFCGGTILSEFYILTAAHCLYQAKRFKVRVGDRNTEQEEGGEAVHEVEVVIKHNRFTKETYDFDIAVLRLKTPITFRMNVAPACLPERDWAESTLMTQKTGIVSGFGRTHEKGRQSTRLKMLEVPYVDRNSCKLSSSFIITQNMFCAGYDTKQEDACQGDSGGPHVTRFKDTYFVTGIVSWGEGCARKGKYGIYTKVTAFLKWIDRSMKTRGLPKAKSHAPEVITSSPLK
T1 sequence (P00742 41-179 partner limits assumed): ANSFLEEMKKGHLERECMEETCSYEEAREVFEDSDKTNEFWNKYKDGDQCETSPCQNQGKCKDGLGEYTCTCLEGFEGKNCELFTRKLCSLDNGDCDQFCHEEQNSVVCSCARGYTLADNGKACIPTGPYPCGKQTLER
Procedure: Briefly, factor Xa is incubated with an excess of tested antithrombins (corresponding to plasma antithrombin, or wild type antithrombin or mutated antithrombins and varying in each assay realized) in the presence or absence of pentasaccharide (Fondaparinux sodique, Arixtra®, GlaxoSmithKline) and the factor Xa residual activity is measured as a function of time. The pentasaccharide is added in excess in the reaction media so that every tested antithrombin is bound to the pentasaccharide. In the absence of pentasaccharide, polybrene is added in order to neutralize any sulfated glycosaminoglycan that may be present in the reaction media. The residual factor Xa activity is measured as the increase in absorbance at 405 nm resulting from cleavage of the chromogenic substrate (S2765 or S2222, Chromogenix) using a microplate reader (Dynatech MR 5000). The analysis of the data is performed using the GraphPad Prism version 3 software. Absorbance recording is continuous or discontinuous according to the expected inhibition rate constant (kon).
The inhibition rate constant (kon) is the second order rate constant given in M^−1·s^−1 which define the velocity of stable complex formation between protease and antithrombin (higher is the kon value, faster will the complex be established).
When the expected kon is lower than 10^4 M^−1·s^−1 the discontinuous method is used. Factor Xa (0.2 to 1 μM, or 0.1 to 1 μM) is incubated with tested antithrombins (0.2 to 10 μM, or 1 to 10 μM) in the presence of pentasaccharide (10 to 100 μM) or polybrene (100 μg/ml) in a final volume of 10 μl for 10 seconds to 5 hours, or 10 seconds to 24 hours. At the end of this incubation period, 190 μl of kinetic buffer containing 200 μM substrate is added and absorbance at 405 nm is recorded.
The kinetic rate constant (k) is estimated by fitting the substrate hydrolysis initial rate curve to equation (1) using non-linear regression with v0 and v∞ being the substrate hydrolysis rate at time to or too respectively. […] (1)
The inhibition rate constant (kon) is calculated from the rate constant (k) using equation (2) where AT is the tested antithrombin concentration. k=AT·kon (2)
When the expected kon is higher than 10^4 M^−1·s^−1′ the continuous method is used. The tested antithrombin (0.01 to 1 μM, or 0.1 to 1 μM) is incubated with the substrate (200 μM) in the presence of pentasaccharide or polybrene in a final volume of 100 μL, or 190 μl, and the reaction is started by addition of 100 μL, or 10 μL, of factor Xa (2 nM or 10 nM). The rate constant (k) is obtained by fitting the substrate hydrolysis curve to equation (3) or (3′) using non-linear regression analysis where A0 is the absorbance at t0, and vi and vs are respectively the initial and final rates of substrate hydrolysis in the absence of tested antithrombin. A405=A0+vi·(1−exp(−k·t))/k. (3) Equation (3′) is also used, particularly in presence of plasma. A405=A0+vs*t+(vi−vs)*(1−exp(−k·t))/k. (3′)
The inhibition rate constant (kon) is calculated from the kinetic constant (k) using equation (4) that takes into account the competitive effect of the substrate, with S being the initial substrate concentration, Km, the Michaelis constant for factor Xa-substrate interaction, AT the tested antithrombin concentration. k=(kon/(1+S/Km))·[AT] (4)
Mutated antithrombins and wild type AT inhibitory activity are measured in the same conditions and compared with plasma AT inhibitory activity.

[1] = test system: plasma anti FXa activity in mice treated with pentasaccharide; assay: Murine model: mutated antithrombins as antidotes of fondaparinux, plasma anti FXa activity; assay type: in vivo, mouse; details: injection of mutated antithrombin after fondaparinux
Procedure: The efficiency of the mutated antithrombins AT-R393H(SEQ ID NO: 4), AT-Pro394 (SEQ ID NO: 6), AT-ΔR393-S394 (SEQ ID NO: 18), AT-ΔR393 (SEQ ID NO: 8), AT-ΔS394 (SEQ ID NO: 10), AT-N135Q-R393H(SEQ ID NO: 14), AT-N135Q-Pro394 (SEQ ID NO: 16), AT-N135Q-ΔR393-S394 (SEQ ID NO: 24), AT-N135Q-ΔR393 (SEQ ID NO: 20), AT-N135Q-A5394 (SEQ ID NO: 22) as antidotes is evaluated in a murine model.
The different drugs to be tested (fondaparinux, low molecular weight heparin, full length heparin and the mutated antithrombins) are administrated by intra-venous injection in the caudal vein to avoid the variability encountered when administration is performed subcutaneously. However, Heparin derivatives (fondaparinux, low molecular weight heparin and full length heparin) could also be administrated subcutaneously.
The blood is collected by punction in cave vein into tubes containing 0.105 mol/L trisodium citrate (1:10). Platelet-poor plasma is obtained by centrifugation at 2300 g for 10 minutes at 12° C. and stored at −80° C. until use.
The following elements are determined: • the doses of fondaparinux inducing an overdose in mice, • the mutated antithrombins time course, and in particular the time required to observe a maximal biological effect, • the minimal doses of mutated antithrombins necessary to neutralize fondaparinux.
For each of these experiments, 4 groups of 5 mice each are used: • In the first group mice receive fondaparinux vehicle and then antidote (mutated antithrombin) vehicle. • In the second group, mice receive fondaparinux and then antidote vehicle • In the third group, mice receive fondaparinux vehicle and then antidote • In the last group, mice receive fondaparinux and then antidote
Anti FXa activity measurements is performed as previously described using a Stachrom Heparin® kit on a STA (Stago, France) or a Rotachrom Heparin® kit with procedure adapted for measurement in microplate reader (Dynatech MR 5000). A calibration curve with pentasaccharide is performed, allowing the expression of the results in nmol/ml (or in mg/L) of plasma.
Thus, the antidote (mutated antithrombins) is administered intravenously, 5 min after the intra-venous injection of the fondaparinux, and 5, 15 or 30 min after the subcutaneous injection of the fondaparinux.
The mutated antithrombin time course is studied by measuring the plasma anti-Xa activity 5 min, 10 min, 20 min and 40 min after the antidote administration.
Once the time of action determined, a dose response curve is performed in vivo to determine the dose of antidote necessary to obtain a decrease in Fondaparinux plasma concentration within the therapeutic range around 1.2 nmol/ml (or 2 mg/L), or around 0.7 nmol/ml (or 1.2 mg/L).

[2] = in the presence of pentasaccharide

Row | Molecule | factor Xa inhibition in continuous method (factor Xa) | anticoagulant / anti-factor Xa activity (factor Xa; [2]) | inhibition rate constant (kon) for factor Xa (factor Xa; [2]) | factor Xa inhibitory activity (factor Xa) | plasma anti FXa activity in mice treated with pentasaccharide [1] | kon, times lower than plasma AT (factor Xa; [2])
1 | AT-N135Q-R393H: human antithrombin with substitution at 393 by Histidine and at 135 by Glutamine | slow factor Xa inhibitors | largely reduced | 4415 M⁻¹ s⁻¹ | negligible | significant decrease | 
2 | AT-R393H: human antithrombin (SEQ ID NO:2) with substitution of the amino acid at position 393 by Histidine |  |  |  | negligible | significant decrease | 
3 | B1 | slow factor Xa inhibitors | almost devoid of anti-factor Xa activity | 33 M⁻¹ s⁻¹ | negligible | significant decrease | at least 7600 times
4 | B2 |  |  |  | negligible | significant decrease | 
5 | B3 |  |  |  | negligible | significant decrease | 
6 | B4 |  |  |  | negligible | significant decrease | 
7 | B5 |  |  |  | negligible | significant decrease | 
